Results: the RNAGym collection of RNA variant scans (doi:10.7554/elife.80360)

B1: Twister Ribozyme (parent)
chain: AACACUGCCAAUGCCGGUCCCAAGCCCGGAUAAAAGUGGAGGGGGCGG

Variants of: B1
Assay: self-cleavage, relative activity (ratio to wild type); higher = more cleavage; co-transcriptional

Variant | self-cleavage
G38A A40C | 0.129
U37C G39A | 0.219
U37C G39C | 0.0703
G39A G43U | 0.134
G41A G42C | 0.094
G41A G42A | 0.129
G41A G42U | 0.156
A40U G41C | 0.17
A40U G41U | 0.145
G43U G44C | 0.767
G43U G44U | 0.398
G43U G44A | 0.722
A40C G44C | 0.226
G41U G43U | 0.147
G38C C46A | 0.791
G38C C46G | 0.801
A40G G47A | 0.102
A40G G47C | 0.192
U37G G45U | 0.47
U37G G45C | 0.268
U37G G45A | 0.544

Variant | self-cleavage
A40U G45C | 0.129
A40U G45A | 0.192
A40U G45U | 0.177
G44U G47U | 0.783
A40G G43C | 0.135
A40G G43U | 0.136
G39C G48C | 0.161
G39C G48U | 0.198
G39C C46A | 0.13
G39C C46G | 0.126
G48U | 1.06
G48C | 1.15
G48A | 0.986
G47A G48A | 1.31
G47A G48C | 0.942
A40C G48A | 0.192
A40C G48U | 0.284
G39A G48C | 0.532
U37C G43C | 0.102
U37C G43A | 0.142
U37C G43U | 0.106

Variant | self-cleavage
A40G G44A | 0.157
A40C G47U | 0.228
G42U G44U | 0.196
G42U G44C | 0.202
G39U G48C | 0.265
G39U G48A | 0.156
G38A G43U | 0.195
U37C G47A | 0.478
U37C G47U | 0.585
U37C C46U | 0.627
G41C G44U | 0.147
G39U A40G | 0.128
G39U A40U | 0.158
G39U A40C | 0.134
G43C G48U | 0.138
U37A G47C | 0.292
U37A G47U | 0.702
G42C G45C | 0.131
G42C G45A | 0.329
U37A G39C | 0.121
G41U G48C | 0.738

Variant | self-cleavage
G41U G48U | 0.584
G38C A40U | 0.129
A40C G42A | 0.152
A40C G42U | 0.139
G38C G44C | 0.853
G38C G44U | 1.02
G38C G44A | 0.826
G47U | 0.965
G47A | 0.952
G47C | 0.706
U37G C46A | 0.619
G38C G48U | 1.06
G41U G45U | 0.25
U37A G48U | 0.811
G41A G47U | 0.236
G45C G47A | 0.305
G38U G48C | 1.05
U37G G47U | 0.724
A40C G43A | 0.138
